Measurements reported in patent publication US11994512B2, “Single-cell genomic methods to generate ex vivo cell systems that recapitulate in vivo biology with improved fidelity” (Massachusetts Institute of Technology, priority 2018, dated 2024).

B1: P51432 (protein, UniProt P51432 1-1234, looked up)
chain: MAGARPGVHALQLEPPTVVETLRRGSKFIKWDEEASSRNLVTLRVDPNGFFLYWTGPNMEVDTLDISSIRDTRTGRYARLPKDPKIREVLGFGGPDTRLEEKLMTVVAGPDPVNTTFLNFMAVQDDTVKVWSEELFKLAMNILAQNASRNTFLRKAYTKLKLQVNQDGRIPVKNILKMFSADKKRVETALESCGLNFNRSESIRPDEFPLEIFERFLNKLCLRPDIDKILLEIGAKGKPYLTLEQLMDFINQKQRDPRLNEVLYPPLRSSQARLLIEKYETNKQFLERDQMSMEGFSRYLGGEENGILPLEALDLSMDMTQPLSAYFINSSHNTYLTAGQLAGPSSVEMYRQALLWGCRCVELDVWKGRPPEEEPFITHGFTMTTEVPLRDVLEAIAEAAFKTSPYPVILSFENHVDSAKQQAKMAEYCRSIFGDALLIDPLDKYPLSAGIPLPSPQDLMGRILVKNKKRHRPSTGVPDSSVRKRPLEQSNSALSESSAATEPSSPQLGSPSSDSCPGLSNGEEVGLEKTSLEPQKSLGEESLSREPNVPMPDRDREDEEEDEEEEETTDPKKPTTDEGTASSEVNATEEMSTLVNYVEPVKFKSFEAARKRNKCFEMSSFVETKAMEQLTKSPMEFVEYNKQQLSRIYPKGTRVDSSNYMPQLFWNVGCQLVALNFQTLDLPMQLNAGVFEYNGRSGYLLKPEFMRRPDKSFDPFTEVIVDGIVANALRVKVISGQFLSDKKVGIYVEVDMFGLPVDTRRKYRTRTSQGNSFNPVWDEEPFDFPKVVLPTLASLRIAAFEEGGKFVGHRILPVSAIRSGYHYVCLRNEANQPLCLPALLIYTEASDYIPDDHQDYAEALINPIKHVSLMDQRAKQLAALIGESEAQASTETYQETPCQQPGSQLPSNPTPNPLDASPRWPPGPTTSSTSSSLSSPGQRDDLIASILSEVTPTPLEELRSHKAMVKLRSRQDRDLRELHKKHQRKAVALTRRLLDGLAQARAEGKCRPSPSALGKATNSEDVKEEEEAKQYREFQNRQVQSLLELREAQADVETKRKLEHLRQAHQRLKEVVLDTHTTQFKRLKELNEREKKELQKILDRKRNNSISEAKTREKHKKEVELTEINRRHITESVNSIRRLEEAQKQRHERLVAGQQQVLQQLEEEEPKLLAQLTQECQEQRERLPQEIRRCLLGETAEGLGDGPLVACASNGHAPGSGGHLSSADSESQEENTQL
modifications: full-length
B2: P52792 (protein, UniProt P52792 1-465, looked up)
chain: MLDDRARMEATKKEKVEQILAEFQLQEEDLKKVMSRMQKEMDRGLKLETHQEASVKMLPTYVRSTPEGSEVGDFLSLDLGGTNFRVMLVKVGEGEAGQWSVKTKHQMYSIPEDAMTGTAEMLFDYISECISDFLDKHQMKHKKLPLGFTFSFPVRHEDIDKGILLNWTKGFKASGAEGNNIVGLLRDAIKRRGDFEMDVVAMVNDTVATMISCYYEDRQCEVGMIVGTGCNACYMEEMQNVELVEGDEGRMCVNTEWGAFGNSGELDEFLLEYDRMVDESSVNPGQQLYEKIIGGKYMGELVRLVLLKLVEENLLFHGEASEQLRTRGAFETRFVSQVESDSGDRRQILNILSTLGLRPSVADCDIVRRACESVSTRAAHMCSAGLAGVINRMRESRSEDVMRITVGVDGSVYKLHPSFKERFHASVRRLTPNCEITFIESEEGSGRGAALVSAVACKKACMLGQ
modifications: full-length
B3: P48756 (protein, UniProt P48756 1-144, looked up)
chain: MVALKTCSLLLVLLFLAVGLGEKEEVEFRSHAKFAGPRPRGPRYAEGTFISDYSIAMDKIRQQDFVNWLLAQRGKKSDWKHNITQREARALVLAGQSQGKEDKEAQESSLPKSLSDDDVLRDLLIQELLAWMVDQTELCRLRSQ
modifications: full-length
B4: P50431 (protein, UniProt P50431 1-478, looked up)
chain: MADRDATLWASHEKMLSQPLKDSDAEVYSIIKKESNRQRVGLELIASENFASRAVLEALGSCLNNKYSEGYPGQRYYGGTEFIDELEMLCQKRALQAYHLDPQCWGVNVQPYSGSPANFAVYTALVEPHGRIMGLDLPDGGHLTHGFMTDKKKISATSIFFESMPYKVYPETGYINYDQLEENASLFHPKLIIAGTSCYSRNLDYARLRKIADDNGAYLMADMAHISGLVAAGVVPSPFEHCHVVTTTTHKTLRGCRAGMIFYRKGVRSVDPKTGKETYYELESLINSAVFPGLQGGPHNHAIAGVAVALKQAMTTEFKIYQLQVLANCRALSDALTELGYKIVTGGSDNHLILMDLRSKGTDGGRAEKVLEACSIACNKNTCPGDKSALRPSGLRLGTPALTSRGLLEEDFQKVAHFIHRGIELTLQIQSHMATKATLKEFKEKLAGDEKIQSAVATLREEVENFASNFSLPGLPDF
modifications: full-length
B5: P48281 (protein, UniProt P48281 1-422, looked up)
chain: MEAMAASTSLPDPGDFDRNVPRICGVCGDRATGFHFNAMTCEGCKGFFRRSMKRKALFTCPFNGDCRITKDNRRHCQACRLKRCVDIGMMKEFILTDEEVQRKREMIMKRKEEEALKDSLRPKLSEEQQHIIAILLDAHHKTYDPTYADFRDFRPPIRADVSTGSYSPRPTLSFSGDSSSNSDLYTPSLDMMEPASFSTMDLNEEGSDDPSVTLDLSPLSMLPHLADLVSYSIQKVIGFAKMIPGFRDLTSDDQIVLLKSSAIEVIMLRSNQSFTLDDMSWDCGSQDYKYDITDVSRAGHTLELIEPLIKFQVGLKKLNLHEEEHVLLMAICIVSPDRPGVQDAKLVEAIQDRLSNTLQTYIRCRHPPPGSHQLYAKMIQKLADLRSLNEEHSKQYRSLSFQPENSMKLTPLVLEVFGNEIS
modifications: full-length
B6: P50543 (protein, UniProt P50543 1-98, looked up)
chain: MPTETERCIESLIAVFQKYSGKDGNNTQLSKTEFLSFMNTELAAFTKNQKDPGVLDRMMKKLDLNCDGQLDFQEFLNLIGGLAIACHDSFIQTSQKRI
modifications: full-length
B7: P55050 (protein, UniProt P55050 1-132, looked up)
chain: MAFDGTWKVDRNENYEKFMEKMGINVMKRKLGAHDNLKLTITQDGNKFTVKESSNFRNIDVVFELGVNFPYSLADGTELTGAWTIEGNKLIGKFTRVDNGKELIAVREVSGNELIQTYTYEGVEAKRFFKKE
modifications: full-length
B8: P51162 (protein, UniProt P51162 1-128, looked up)
chain: MAFSGKYEFESEKNYDEFMKRLGLPGDVIERGRNFKIITEVQQDGQDFTWSQSYSGGNIMSNKFTIGKECEMQTMGGKKFKATVKMEGGKVVAEFPNYHQTSEVVGDKLVEISTIGDVTYERVSKRLA
modifications: full-length
B9: P56395 (protein, UniProt P56395 1-134, looked up)
chain: MAGQSDKDVKYYTLEEIQKHKDSKSTWVILHHKVYDLTKFLEEHPGGEEVLREQAGGDATENFEDVGHSTDARELSKTYIIGELHPDDRSKIAKPSDTLITTVESNSSWWTNWVIPAISALAVALMYRLYMAED
modifications: full-length
B10: P52800 (protein, UniProt P52800 1-336, looked up)
chain: MAMARSRRDSVWKYCWGLLMVLCRTAISRSIVLEPIYWNSSNSKFLPGQGLVLYPQIGDKLDIICPKVDSKTVGQYEYYKVYMVDKDQADRCTIKKENTPLLNCARPDQDVKFTIKFQEFSPNLWGLEFQKNKDYYIISTSNGSLEGLDNQEGGVCQTRAMKILMKVGQDASSAGSARNHGPTRRPELEAGTNGRSSTTSPFVKPNPGSSTDGNSAGHSGNNLLGSEVALFAGIASGCIIFIVIIITLVVLLLKYRRRHRKHSPQHTTTLSLSTLATPKRGGNNNGSEPSDVIIPLRTADSVFCPHYEKVSGDYGHPVYIVQEMPPQSPANIYYKV
modifications: full-length

System: intracellular proteome of ENR+CD and ENR organoids
Experiment: LC-MS/MS TMT proteomics of ENR+CD versus ENR organoids
Format: cell-based, C57BL/6 mice
Conditions: for Average logFC / M1-1 Log2 Median Normalized / M1-2 Log2 Median Normalized / M2-1 Log2 Median Normalized / M2-2 Log2 Median Normalized: protein abundance, ENR+CD versus ENR organoids; for Average logFC: aggregate of the four sample pairs; for M1-1 Log2 Median Normalized: replicate M1-1; for M1-1 Log2 Median Normalized / M1-2 Log2 Median Normalized / M2-1 Log2 Median Normalized / M2-2 Log2 Median Normalized: log2 ratio; for M1-2 Log2 Median Normalized: replicate M1-2; for M2-1 Log2 Median Normalized: replicate M2-1; for M2-2 Log2 Median Normalized: replicate M2-2; for change: up = enriched in ENR+CD, down = enriched in ENR, FDR<0.05 and log fold change cut-off

Molecule	Average logFC	M1-1 Log2 Median Normalized	M1-2 Log2 Median Normalized	M2-1 Log2 Median Normalized	M2-2 Log2 Median Normalized	change
B1	−1.187	−1.261	−1.255	−1.1345	−1.096	down
B2	1.166	1.847	0.711	1.3025	0.805	up
B3	1.212	1.21	0.504	1.2845	1.769	up
B4	−1.162	−1.382	−1	−1.1875	−1.08	down
B5	−1.442	−1.589	−1.441	−1.0795	−1.499	down
B6	1.372	1.371	1.475	1.4645	0.855	up
B7	−1.721	−1.558	−2.656	−2.1955	−0.474	down
B8	−1.573	−0.519	−1.799	−2.7635	−1.209	down
B9	−1.382	−1.162	−0.964	−1.6925	−1.71	down
B10	−1.24	−0.883	−1.258	−1.7545	−1.065	down
